This data set deals with MS2 coat protein. Nature of the data set: apparent KD of MS2 coat protein; designed switch direction (-1 OFF switch, 1 ON switch): -1; higher = weaker reporter binding. The gist of the method: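 The buffer was Tris-HCl pH 7.5 with KCl, MgCl2, BSA, DTT, tRNA and Tween-20. In it, SNAP-549-labelled MS2 coat protein was titrated in doubling steps from 0.7 or 1.5 nM to 3 µM over chip-bound RNA switches transcribed by stalled E. coli RNA polymerase on Illumina chips. Apparent KD is the per-design median over clusters of curve fits to normalised fluorescence.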

The mark [1] stands for this setting: input ligand: microRNA oligo, concentration not stated.
Setting [2] is: Eterna round: R95, input ligand: microRNA oligo, concentration not stated.

Turning to “UGAUCUAGCGGAGGAUAUACAUGAGGAUCACCCAUGUAGUUGUCUGUACCGUAGUGCAGACUUGUGUAGAAGGCCGCUAGAUCU [JL ENG2 3.62] (Eterna round: R96, puzzle: Exclusion NG 2)”, the “apparent KD of MS2 coat protein” value was found to be 0.0259 µM (input ligand: FMN 200 uM), 0.00962 µM under setting [1] and 0.0143 µM (input ligand: none).

On to “UGAUCUAGCGGAGGAUAUACAUGAGGAUCACCCAUGUAUACUCUAUGACCGUAGUCGUGGAGCGUGUAGAAGGCCGCUAGAUCU [JL ENG2 3.76] (Eterna round: R96, puzzle: Exclusion NG 2)”, for which the “apparent KD of MS2 coat protein” value (input ligand: FMN 200 uM) amounted to 0.0146 µM, the “apparent KD of MS2 coat protein” value under setting [1] worked out at 0.0091 µM and the “apparent KD of MS2 coat protein” value (input ligand: none) was determined as 0.0116 µM.

“UGAUCUAGCGGAGGAUAUACAUGAGGAUCACCCAUGUAUAGUCUAUGACCGUAGUCGUGGAACGUGUAGAAGGCCGCUAGAUCU [JL ENG2 3.78] (Eterna round: R96, puzzle: Exclusion NG 2)”: the “apparent KD of MS2 coat protein” value came to 0.0184 µM (input ligand: FMN 200 uM), 0.0102 µM under setting [1] and 0.0144 µM (input ligand: none).

As to “UGAUCUUGUGUCAGGAUAUGCUGGUCUCCUCUCCAGCAGAAGGGACAUGAGGAUCACCCAUGUUCUCUCUUUUU [Magic-11] (puzzle: Brourd's mod of Exclusion 4)”, under setting [2], the “apparent KD of MS2 coat protein” value stood at 0.0115 µM.

Take “UGAUCUUUUGUUAGGAUAUGCUGGCUGAAAAGUCAGCAGAAGGGACAUGAGGAUCACCCAUGUUCUCUCUUUUU [Magic-09] (puzzle: Brourd's mod of Exclusion 4)”: the “apparent KD of MS2 coat protein” value under setting [2] amounted to 0.0103 µM.

For “UGAUUUGGAGGAUAUACAUGAGGAUCACCCAUGUAAAGGCCGUGGGUCGAACCCGAGAGUAGAAGGUCGAGAGA [Eternabot (L1) Solution 30] (Eterna round: R97, puzzle: Exclusion 3)”, the “apparent KD of MS2 coat protein” value reads like this: (input ligand: FMN 200 uM) 0.185 µM; (input ligand: none) 0.0917 µM.

With “UGCAAGCUUUUAAGAUCCUACAUGAGGAUCACCCAUGUGCUCGUCUUAUAACGUACUGUGACGAAAGUCACGGUACG [JL TOV1 3.95] (Eterna round: R97, puzzle: Sensor, turn-off variant 1)”, the “apparent KD of MS2 coat protein” value came out at 0.105 µM (input ligand: FMN 200 uM) and 0.114 µM (input ligand: none).

Turning to “UGCAGACGAGGAUAUAAAUUUGAUAACAUGAGGAUCACCCAUGUGAUCGAUAGAUCAAAUUUAGAAGGCGUCUGCA [E5/7-A2] (Eterna round: R97, puzzle: Exclusion 5)”, the “apparent KD of MS2 coat protein” value by setting is: (input ligand: FMN 200 uM) 0.369 µM; (input ligand: none) 0.717 µM.

As for “UGCAGACGAGGAUAUGAUAAAGAUCACAUGAGGAUCACCCAUGUAGCGUCGAUAGACGCAUCAGAAGGCGUCUGCA [E5/1-A2] (Eterna round: R97, puzzle: Exclusion 5)”, the “apparent KD of MS2 coat protein” value turned out to be 0.0163 µM (input ligand: FMN 200 uM) and 0.016 µM (input ligand: none).

In the case of “UGCAUGUAAGGAUAUGCAACCUGCGCUCAUUAGCAGGUCAAGCAGAAGGUACAUGAGGAUCACCCAUGUGUCCG [Tebisoma] (Eterna round: R96, puzzle: Exclusion 4)”, the “apparent KD of MS2 coat protein” value (input ligand: FMN 200 uM) came to 0.462 µM, the “apparent KD of MS2 coat protein” value under setting [1] was 0.0252 µM and the “apparent KD of MS2 coat protein” value (input ligand: none) stood at 0.0316 µM.

In the case of “UGCAUGUAAGGAUAUGCAUCCGCCGACGUCCCGGCGGCACAGCAGAAGGUACAUGAGGAUCACCCAUGUGUCCC [Qusousar] (Eterna round: R96, puzzle: Exclusion 4)”, the “apparent KD of MS2 coat protein” value by setting is: (input ligand: FMN 200 uM) 0.449 µM; under setting [1], 0.024 µM; (input ligand: none) 0.031 µM.

Turning to “UGCCAGAAAGGAUAUACAUGAGGAUCACCCAUGUAACCCUAUGUGAGAGUUCCCGUUUGUAGAAGGUUCUCGUA [EX3 C.22] (Eterna round: R97, puzzle: Exclusion 3)”, the “apparent KD of MS2 coat protein” value (input ligand: FMN 200 uM) was 0.0213 µM and the “apparent KD of MS2 coat protein” value (input ligand: none) worked out at 0.0182 µM.

In the case of “UGCGGGCUUUUGAGACCUCACAUGAGGAUCACCCAUGUGCUUGUCUUGUGAGUGGGUAGGUCGUUGGCUGACUCACG [Sensor-V1 #99] (Eterna round: R97, puzzle: Sensor, turn-off variant 1)”, the “apparent KD of MS2 coat protein” value (input ligand: FMN 200 uM) is 0.0234 µM and the “apparent KD of MS2 coat protein” value (input ligand: none) was determined as 0.0231 µM.

Source of the values: the supplement of paper PMC9170038.
